Results on 33 molecules are retold here after patent US20030114404, “Vascular endothelial growth factor (VEGF) nucleic acid ligand complexes” (Gilead Sciences, Inc., published 2003).

Substitutions are numbered along the chain they refer to.

B1: VP40.44 (ssRNA)
RNA: GGGAGGACGAUGCGGAUCUGUUGAACUGGGUUUUGCCGACGGUUACGCUUUUGCUCAGACGACUCGCCCGA
modifications: 2'-F pyrimidines
B2: VP30.31 (ssRNA)
RNA: GGGAGGACGAUGCGGUAACCGAUUGAACUUCUUGGACGCUACCGUCAGACGACUCGCCCGA
modifications: 2'-F pyrimidines
B3: VP30.7 (ssRNA)
RNA: GGGAGGACGAUGCGGAAGAAUUGGUCAUCGUCGUCUCCGCCUCCCCAGACGACUCGCCCGA
modifications: 2'-F pyrimidines
B4: VT30.27 (ssRNA)
RNA: GGGAGGACGAUGCGGGAUCACGGCUUUGCACGAUCUUCUUCUCCUCAGACGACUCGCCCGA
modifications: 2'-F pyrimidines
B5: VT30.12 (ssRNA)
RNA: GGGAGGACGAUGCGGUCUUUGGGUUUUUGCCAACGGUUUUCGCUCAGACGACUCGCCCGA
modifications: 2'-F pyrimidines
B6: VT30.7 (ssRNA)
RNA: GGGAGGACGAUGCGGUAACCAGUGGAAGAAUUGGCUGCUAUCCUCAGACGACUCGCCCGA
modifications: 2'-F pyrimidines
B7: VP30.12 (ssRNA)
RNA: GGGAGGACGAUGCGGAAUACGGAAGAAUUGGAUACAUAUGCUCGUCAGACGACUCGCCCGA
modifications: 2'-F pyrimidines
B8: VT30.18 (ssRNA)
RNA: GGGAGGACGAUGCGGUUCAGAAUUGGCUGCGAUCCUUUUCCCCCUCAGACGACUCGCCCGA
modifications: 2'-F pyrimidines
B9: VP30.41 (ssRNA)
RNA: GGGAGGACGAUGCGGUAGGAAGUAUUGUAAGCGCCUCGUUUUCGCCAGACGACUCGCCCGA
modifications: 2'-F pyrimidines
B10: VT30.10 (ssRNA)
RNA: GGGAGGACGAUGCGGAACGGAAGAAUUGGAUACGUAGCAUGCGUCAGACGACUCGCCCGA
modifications: 2'-F pyrimidines
B11: VP30.13 (ssRNA)
RNA: GGGAGGACGAUGCGGGAUAACAGAAGAAUUGGUGAACAACGUGGUCAGACGACUCGCCCGA
modifications: 2'-F pyrimidines
B12: VT30.52 (ssRNA)
RNA: GGGAGGACGAUGCGGAAGAAUUGAGCAUUCCUUCUCCUUGUGCCUCAGACGACUCGCCCGA
modifications: 2'-F pyrimidines
B13: VP40.17 (ssRNA)
RNA: GGGAGGACGAUGCGGUGAACCGAUGGAAUCGCUUGGACGCUCAUCGCACGUUGCUCAGACGACUCGCCCGA
modifications: 2'-F pyrimidines
B14: VP40.53 (ssRNA)
RNA: GGGAGGACGAUGCGGUGAGAGAAACGGAAGAAUUGGAUACGAUACUCAUCGCGCUCAGACGACUCGCCCGA
modifications: 2'-F pyrimidines
B15: VT30.38 (ssRNA)
RNA: GGGAGGACGAUGCGGAGCGGUAUUCUGUUCGGUCGUUUUCCUCCUCAGACGACUCGCCCGA
modifications: 2'-F pyrimidines
B16: VP30.16 (ssRNA)
RNA: GGGAGGACGAUGCGGAUGAUCGCGUAGGAAGUAUUGGAAGGCCCUCAGACGACUCGCCCGA
modifications: 2'-F pyrimidines
B17: VP40.41 (ssRNA)
RNA: GGGAGGACGAUGCGGCAAAUUCAAGGUCGAGUUAUGCGUAGAUGUGGCUCCUGUGCAGACGACUCGCCCGA
modifications: 2'-F pyrimidines
B18: VP40.43 (ssRNA)
RNA: GGGAGGACGAUGCGGACAGAAGAAUUGGGCUUCGCAUUAUCCUCUGUCAGCCGCCAGACGACUCGCCCGA
modifications: 2'-F pyrimidines
B19: VP30.54 (ssRNA)
RNA: GGGAGGACGAUGCGGAAGAAACGGAAGAAUUGGAGACACGCUCGUCAGACGACUCGCCCGA
modifications: 2'-F pyrimidines
B20: VT30.53 (ssRNA)
RNA: B19 RNA with A17G, G18C, A19U, G35A, C39A, G40C, U42G
modifications: 2'-F pyrimidines
B21: VP30.51 (ssRNA)
RNA: GGGAGGACGAUGCGGAGUUUUGGAAGAAUUGGAUGUUCCGAUCGUCAGACGACUCGCCCGA
modifications: 2'-F pyrimidines
B22: VP40.9 (ssRNA)
RNA: GGGAGGACGAUGCGGGAGCAGAACCGAUAGAAGAAUUGGACGCUCAGCUCCGGGUCAGACGACUCGCCCGA
modifications: 2'-F pyrimidines
B23: VT30.23 (ssRNA)
RNA: GGGAGGACGAUGCGGGAUCACGAUACUUGACGAUUUUCCUCUCCUCAGACGACUCGCCCGA
modifications: 2'-F pyrimidines
B24: VT30.20 (ssRNA)
RNA: GGGAGGACGAUGCGGAAACGGAAGAAUUGGAUACCGCUACGUGUUCAGACGACUCGCCCGA
modifications: 2'-F pyrimidines
B25: VP40.47 (ssRNA)
RNA: GGGAGGACGAUGCGGCAGUUAAUUAAUUUGAGUUGUGAUGUGUGUCGUUAUGGGCCAGACGACUCGCCCGA
modifications: 2'-F pyrimidines
B26: VP30.43 (ssRNA)
RNA: GGGAGGACGAUGCGGUAACCGAAUUGAAGUUAUUGGACGCUACCUCAGACGACUCGCCCGA
modifications: 2'-F pyrimidines
B27: VT30.13 (ssRNA)
RNA: GGGAGGACGAUGCGGCAGGAUUUUGGAAGAAUUGGAUAUUGGCCGCAGACGACUCGCCCGA
modifications: 2'-F pyrimidines
B28: VT30.40 (ssRNA)
RNA: GGGAGGACGAUGCGGAUUUGGAUGCAUGUCAAGGCGUUUUGCCCUCAGACGACUCGCCCGA
modifications: 2'-F pyrimidines
B29: VP40.4 (ssRNA)
RNA: GGGAGGACGAUGCGGGAAGAAUUGAUGUUGUAUUGUCCUUCCGAUUUCCUGCCGUCAGACGACUCGCCCGA
modifications: 2'-F pyrimidines
B30: VT30.9 (ssRNA)
RNA: GGGAGGACGAUGCGGUCAACCGGUUGAAUAUUUGGUCGCUGACCUCAGACGACUCGCCCGA
modifications: 2'-F pyrimidines
B31: VT30.8 (ssRNA)
RNA: GGGAGGACGAUGCGGUUGAUCGAUUUUCCUGGCGUCCUUAUGGGUCAGACGACUCGCCCGA
modifications: 2'-F pyrimidines
B32: VT30.4 (ssRNA)
RNA: GGGAGGACGAUGCGGCUUAAGUUUUGGAAGAAUUGAAUACUGGGUCAGACGACUCGCCCGA
modifications: 2'-F pyrimidines
B33: VP40.14 (ssRNA)
RNA: GGGAGGACGAUGCGGGUACCAGAAUGAGCAACCGAAUGAAGAACUGGACGCUGCUCAGACGACUCGCCCGA
modifications: 2'-F pyrimidines

By Kd is commonly meant the concentration at which binding is half-saturated.

VEGF165, sequence (P15692 other isoform, or with tags, fused parts or gaps): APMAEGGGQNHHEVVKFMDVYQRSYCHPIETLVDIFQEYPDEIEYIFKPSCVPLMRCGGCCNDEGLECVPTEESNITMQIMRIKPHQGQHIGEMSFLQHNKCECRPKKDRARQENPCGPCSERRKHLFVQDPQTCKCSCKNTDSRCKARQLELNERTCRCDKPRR

This data set addresses VEGF165 (Homo sapiens, UniProt P15692-4 P15692-4:27-191). Kind of data set: filter; 37 C. The settings on record: tags: carrier-free, Sf 21 insect cell expressed, R & D Systems; chain copies: 2 (inferred). As for the experimental part:
Nucleic Acid Ligands radiolabeled during transcription by incorporation of α-[³²P]-labeled NTPs, or after synthesis using γ-[³²P]-ATP and T4 polynucleotide kinase, were incubated in low concentration (between 20 and 70 pM) with varying concentrations of VEGF or other growth factors at 37° C. for 15 minutes. Incubations were in TBS, PBS, or HEPES-buffered saline (HBS), pH 7.4, with or without the addition of supplemental divalent cations. Samples were passed through prewashed 0.45 μ Type HA filters (Millipore) followed by a 5-10 ml wash with binding buffer. Filters were immersed in scintillant and counted to quantitate the amount of protein-bound RNA retained by each filter. The equilibrium dissociation constant (KD) of Nucleic Acid Ligand binding to a specific protein was calculated from the data points as described in Green et al. (1996) Biochem. 35: 14413-14424.
In turn, B1 displayed a Kd of 0.043 nM.
Molecule B2 showed a dissociation constant Kd of 0.006 nM.
With B3 the figure was 3 nM.
Take B4: the dissociation constant Kd came out at 0.12 nM.
B5 showed an equilibrium dissociation constant (Kd) of 0.009 nM.
Next, B6: 0.01 nM; B7: 0.007 nM.
In turn, B8 came in with a Kd of 0.004 nM.
With B9, the Kd amounted to 0.007 nM.
Next, B10: 0.002 nM.
With B11 the figure was 0.01 nM; with B12, 9 nM; with B13, 0.01 nM.
B14 registered an equilibrium dissociation constant (Kd) of 0.008 nM.
With B15 the figure was 0.005 nM; with B16, 0.006 nM.
Next, B17: 11 nM; B18: 0.03 nM; B19: 0.01 nM.
With B20 the figure was 0.01 nM.
Molecule B21 showed an equilibrium dissociation constant (Kd) of 0.09 nM.
For the molecule B22, the dissociation constant Kd is 0.03 nM.
The molecule B23 registered a Kd of 0.019 nM.
Next, B24: 0.004 nM; B25: 0.096 nM; B26: 0.005 nM.
B27 showed a Kd of 0.01 nM.
Next, B28: 0.03 nM.
Next, B29: 0.2 nM; B30: 0.03 nM; B31: 0.034 nM.
B32: binding was put at a Kd of 0.02 nM.
B33: the Kd is 0.008 nM.
